Laboratory results taken from IntAct's records for PubMed 31515488.

B1: Zinc finger and BTB domain-containing protein 49 (Homo sapiens), Q6ZSB9 (parent)
chain: MDPVATHSCHLLQQLHEQRIQGLLCDCMLVVKGVCFKAHKNVLAAFSQYFRSLFQNSSSQKNDVFHLDVKNVSGIGQILDFMYTSHLDLNQDNIQVMLDTAQCLQVQNVLSLCHTFLKSATVVQPPGMPCNSTLSLQSTLTPDATCVISENYPPHLLQECSADAQQNKTLDESHPHASPSVNRHHSAGEISKQAPDTSDGSCTELPFKQPNYYYKLRNFYSKQYHKHAAGPSQERVVEQPFAFSTSTDLTTVESQPCAVSHSECILESPEHLPSNFLAQPVNDSAPHPESDATCQQPVKQMRLKKAIHLKKLNFLKSQKYAEQVSEPKSDDGLTKRLESASKNTLEKASSQSAEEKESEEVVSCENFNCISETERPEDPAALEDQSQTLQSQRQYACELCGKPFKHPSNLELHKRSHTGEKPFECNICGKHFSQAGNLQTHLRRHSGEKPYICEICGKRFAASGDVQRHIIIHSGEKPHLCDICGRGFSNFSNLKEHKKTHTADKVFTCDECGKSFNMQRKLVKHRIRHTGERPYSCSACGKCFGGSGDLRRHVRTHTGEKPYTCEICNKCFTRSAVLRRHKKMHCKAGDESPDVLEELSQAIETSDLEKSQSSDSFSQDTSVTLMPVSVKLPVHPVENSVAEFDSHSGGSYCKLRSMIQPHGVSDQEKLSLDPGKLAKPQMQQTQPQAYAYSDVDTPAGGEPLQADGMAMIRSSLAALDNHGGDPLGSRASSTTYRNSEGQFFSSMTLWGLAMKTLQNENELDQ
B2: "Dol-P-Man:Man(5)GlcNAc(2)-PP-Dol alpha-1,3-mannosyltransferase" (Homo sapiens), Q92685 (parent)
chain: MAAGLRKRGRSGSAAQAEGLCKQWLQRAWQERRLLLREPRYTLLVAACLCLAEVGITFWVIHRVAYTEIDWKAYMAEVEGVINGTYDYTQLQGDTGPLVYPAGFVYIFMGLYYATSRGTDIRMAQNIFAVLYLATLLLVFLIYHQTCKVPPFVFFFMCCASYRVHSIFVLRLFNDPVAMVLLFLSINLLLAQRWGWGCCFFSLAVSVKMNVLLFAPGLLFLLLTQFGFRGALPKLGICAGLQVVLGLPFLLENPSGYLSRSFDLGRQFLFHWTVNWRFLPEALFLHRAFHLALLTAHLTLLLLFALCRWHRTGESILSLLRDPSKRKVPPQPLTPNQIVSTLFTSNFIGICFSRSLHYQFYVWYFHTLPYLLWAMPARWLTHLLRLLVLGLIELSWNTYPSTSCSSAALHICHAVILLQLWLGPQPFPKSTQHSKKAH
partner: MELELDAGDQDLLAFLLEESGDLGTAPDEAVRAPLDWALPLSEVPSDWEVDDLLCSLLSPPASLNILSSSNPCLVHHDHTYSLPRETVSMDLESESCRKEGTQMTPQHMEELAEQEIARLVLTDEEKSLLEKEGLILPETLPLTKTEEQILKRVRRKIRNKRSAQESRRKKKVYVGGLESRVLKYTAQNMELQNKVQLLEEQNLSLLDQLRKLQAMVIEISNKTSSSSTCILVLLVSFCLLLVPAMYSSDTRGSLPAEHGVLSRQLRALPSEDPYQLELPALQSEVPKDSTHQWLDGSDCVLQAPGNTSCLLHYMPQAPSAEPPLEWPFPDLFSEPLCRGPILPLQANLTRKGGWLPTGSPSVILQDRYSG

Variants of: B1
Details: with gopc_human GOPC

effect of a mutation on the interaction | Variant
with no effect | G701D
with no effect | E346K
with no effect | Y320S
with no effect | C294R
with no effect | P627A

Variants of: B1
Details: with cep70_human CEP70, Q8NHQ1
cep70_human CEP70, Q8NHQ1, sequence (Q8NHQ1 whole entry): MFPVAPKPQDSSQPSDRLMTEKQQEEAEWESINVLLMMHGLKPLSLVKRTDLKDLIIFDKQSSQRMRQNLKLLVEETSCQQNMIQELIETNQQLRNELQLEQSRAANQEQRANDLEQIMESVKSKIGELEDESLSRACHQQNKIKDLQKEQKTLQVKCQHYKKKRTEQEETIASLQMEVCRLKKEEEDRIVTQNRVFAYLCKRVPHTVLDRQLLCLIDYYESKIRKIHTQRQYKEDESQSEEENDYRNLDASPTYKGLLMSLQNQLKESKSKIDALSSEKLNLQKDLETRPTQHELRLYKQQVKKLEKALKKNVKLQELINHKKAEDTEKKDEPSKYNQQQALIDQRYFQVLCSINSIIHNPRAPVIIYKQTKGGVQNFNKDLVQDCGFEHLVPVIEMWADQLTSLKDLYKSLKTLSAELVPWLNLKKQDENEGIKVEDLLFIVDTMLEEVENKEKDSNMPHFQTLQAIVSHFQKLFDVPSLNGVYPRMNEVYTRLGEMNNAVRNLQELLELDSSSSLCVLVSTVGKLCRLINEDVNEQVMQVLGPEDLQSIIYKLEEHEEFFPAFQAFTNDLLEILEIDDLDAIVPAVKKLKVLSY

effect of a mutation on the interaction | Variant
with no effect | G701D
with no effect | E346K
disrupting interaction strength | Y320S
with no effect | C294R
with no effect | P627A

Variants of: B2
Details: with creb3_human CREB3, O43889

effect of a mutation on the interaction | Variant
with no effect | MAAGLRKRGRSGSAAQAEGLCKQWLQRAWQERRLLLREPRYTLLVAACLCLAEVGITFWVIHRVAYTEIDWKAYMAEVEGVINGTYDYTQLQGDTGPLVYPAGFVYVFMGLYYATSRGTDIRMAQNIFAVLYLATLLLVFLIYHQTCKVPPFVFFFMCCASYRVHSIFVLRLFNDPVAMVLLFLSINLLLAQRWGWGCCFFSLAVSVKMNVLLFAPGLLFLLLTQFGFRGALPKLGICAGLQVVLGLPFLLENPSGYLSRSFDLGRQFLFHWTVNWRFLPEALFLHRAFHLALLTAHLTLLLLFALCRWHRTGESILSLLRDPSKRKVPPQPLTPNQIVSTLFTSNFIGICFSRSLHYQFYVWYFHTLPYLLWAMPARWLTHLLRLLVLGLIELSWNTYPSTSCSSAALHICHAVILLQLWLGPQPFPKSTQHSKKAH [I107V]
